Experimental data: IntAct's records for PubMed 17064696

B1: Sphingosine kinase 1 (Homo sapiens), Q9NYA1 (parent)
chain: MDPAGGPRGVLPRPCRVLVLLNPRGGKGKALQLFRSHVQPLLAEAEISFTLMLTERRNHARELVRSEELGRWDALVVMSGDGLMHEVVNGLMERPDWETAIQKPLCSLPAGSGNALAASLNHYAGYEQVTNEDLLTNCTLLLCRRLLSPMNLLSLHTASGLRLFSVLSLAWGFIADVDLESEKYRRLGEMRFTLGTFLRLAALRTYRGRLAYLPVGRVGSKTPASPVVVQQGPVDAHLVPLEEPVPSHWTVVPDEDFVLVLALLHSHLGSEMFAAPMGRCAAGVMHLFYVRAGVSRAMLLRLFLAMEKGRHMEYECPYLVYVPVVAFRLEPKDGKGVFAVDGELMVSEAVQGQVHPNYFWMVSGCVEPPPSWKPQQMPPPEEPL

Variants of: B1
Conditions: with catb_human CTSB

| Variant | effect of a mutation on the interaction |
| --- | --- |
| H122Y | decreasing interaction |

Variants of: B1
Conditions: with catb_human CTSB
Remark: another data set of the same source

| Variant | effect of a mutation on the interaction |
| --- | --- |
| N121E | decreasing interaction |

Variants of: B1
Conditions: with catb_human CTSB
Remark: another data set of the same source

| Variant | effect of a mutation on the interaction |
| --- | --- |
| Y123A | decreasing interaction |
